Three molecules from patent US10544215B2, “1-(Chloromethyl)-2,3-dihydro-1H-benzo[e]indole dimer antibody-drug conjugate compounds, and methods of use and treatment” (priority 2013, dated 2020) can be followed below.

This test concerns EOL-1. The experiment in a line: EOL-1 in vitro cell viability (CellTiter-Glo cell proliferation assay). It counts as cell-based, human. To be noted: at 3 days versus ADC concentrations (μg/ml). The text has this: The CellTiter-Glo® Luminescent Cell Viability Assay is a commercially available (Promega Corp., Madison, Wis.), homogeneous assay method based on the recombinant expression of Coleoptera luciferase (U.S. Pat. Nos. 5,583,024; 5,674,713; 5,700,670). This cell proliferation assay determines the number of viable cells in culture based on quantitation of the ATP present, an indicator of metabolically active cells (Crouch et al (1993) J. Immunol. Meth. 160:81-88; U.S. Pat. No. 6,602,677). The CellTiter-Glo® Assay was conducted in 96 well format, making it amenable to automated high-throughput screening (HTS) (Cree et al (1995) AntiCancer Drugs 6:398-404). The homogeneous assay procedure involves adding the single reagent (CellTiter-Glo® Reagent) directly to cells cultured in serum-supplemented medium. Cell washing, removal of medium and multiple pipetting steps are not required. The system detects as few as 15 cells/well in a 384-well format in 10 minutes after adding reagent and mixing. The cells may be treated continuously with ADC, or they may be treated and separated from ADC.
The homogeneous “add-mix-measure” format results in cell lysis and generation of a luminescent signal proportional to the amount of ATP present. The amount of ATP is directly proportional to the number of cells present in culture. […] Viable cells are reflected in relative luminescence units (RLU). […]
Efficacy of ADC was measured by a cell proliferation assay employing the following protocol ([…] GLO™ Luminescent Cell Viability Assay, Promega Corp. Technical Bulletin TB288; Mendoza et al (2002) Cancer Res. 62:5485-5488): • 1. […] The plate was incubated at room temperature for 10 minutes to stabilize the luminescence signal. • 8. Luminescence was recorded and reported in graphs as RLU=relative luminescence units. • Data are plotted as the mean of luminescence for each set of replicates, with standard deviation error bars. […]

B1: ADC 125: Thio Hu Anti-CD33 15G15.33 HC A118C-MC-MMED-(CBI dimer phos); linker-CBI intermediate 57 (conjugate)
VH: QVQLVQSGAEVKKPGSSVKVSCKASGGIFSNHAISWVRQAPGQGLEWMGGIIPIFGTANYAQKFQGRVTITADESTSTAFMELSSLRSEDTAVYYCAREWADVFDIWGQGTMVTVSS
VL: EIVLTQSPLSLPVTPGEPASISCRSSQSLLHSNGYNYLDWYLQKPGQSPQLLIYLGVNSVSGVPDRFSGSGSGTDFTLKISRVEAEDVGVYYCMQALQTPWTFGQGTKVEIK
Consider B1, for which the “cell-killing activity (EOL-1 in vitro cell viability)” value (“cell-killing activity” below) is reported as “modest dose response cell-killing activity”.

B2: ADC 127: Thio Hu Anti-CD33 15G15.33 HC A118C-MC-ED-(CBI dimer DVB diphos); linker-CBI intermediate 66 (conjugate)
VH: QVQLVQSGAEVKKPGSSVKVSCKASGGIFSNHAISWVRQAPGQGLEWMGGIIPIFGTANYAQKFQGRVTITADESTSTAFMELSSLRSEDTAVYYCAREWADVFDIWGQGTMVTVSS
VL: EIVLTQSPLSLPVTPGEPASISCRSSQSLLHSNGYNYLDWYLQKPGQSPQLLIYLGVNSVSGVPDRFSGSGSGTDFTLKISRVEAEDVGVYYCMQALQTPWTFGQGTKVEIK
Turning to B2, the “cell-killing activity” value is listed as “potent, dose responsive cell-killing activity”.

B3: ADC 129: Thio Hu Anti-CD33 15G15.33 HC A118C-MC-ED-(CBI dimer DVB phos); linker-CBI intermediate 68 (conjugate)
VH: QVQLVQSGAEVKKPGSSVKVSCKASGGIFSNHAISWVRQAPGQGLEWMGGIIPIFGTANYAQKFQGRVTITADESTSTAFMELSSLRSEDTAVYYCAREWADVFDIWGQGTMVTVSS
VL: EIVLTQSPLSLPVTPGEPASISCRSSQSLLHSNGYNYLDWYLQKPGQSPQLLIYLGVNSVSGVPDRFSGSGSGTDFTLKISRVEAEDVGVYYCMQALQTPWTFGQGTKVEIK
For B3, the “cell-killing activity” value is recorded as “potent, dose responsive cell-killing activity”.
